Results published in PMC10462243 (Research Square, 2023).

B1: Plk4 CPB(581–808), purified (domain or fragment, UniProt O00444 581-808, looked up)
chain: GYQNRTLRSITSPLVAHRLKPIRQKTKKAVVSILDSEEVCVELVKEYASQEYVKEVLQISSDGNTITIYYPNGGRGFPLADRPPSPTDNISRYSFDNLPEKYWRKYQYASRFVQLVRSKSPKITYFTRYAKCILMENSPGADFEVWFYDGVKIHKTEDFIQVIEKTGKSYTLKSESEVNSLKEEIKMYMDHANEGHRICLALESIISEEERKTRSAPFFPIIIGRKPG
notes: Plk4 cryptic polo-box, residues 581–808; Two copies for each Vpr•VprBP in the SEC complex; The construct has a TEV site

Key:
Experiment in all cases: SEC; purified Vpr, VprBP(1057–1507), Plk4 CPB(581–808) and DDB1; HisTrap eluate of VprBP and Vpr digested with TEV, mixed with Plk4 CPB; SEC in 20 mM Tris-HCl pH 7.5, 100 mM NaCl, 10% glycerol; stoichiometry estimated from Coomassie-stained protein intensity
[1] = target: B1; details: both partners purified
[2] = target: the molecule itself
[3] = target: T1, Vpr•VprBP WD40-AR complex ( | HIV-1 (pNL4–3), UniProt Q9Y4B6;P12520); details: both partners purified
T1 construct: VprBP (DCAF1) WD40 domain and acidic region; HIV-1 Vpr ORF; Chains as m38 and m37, formed by co-expression before Plk4 CPB was added; also called VprBP (WD40-AR)•Vpr complex; source: Tni-FNL insect cells, co-expressed, purified (HisTrap, TEV); not shown: His, N-terminal, cleaved; MBP, N-terminal, cleaved; copies: 1 + 1
T1 sequence (Q9Y4B6 1057-1507, one chain of several): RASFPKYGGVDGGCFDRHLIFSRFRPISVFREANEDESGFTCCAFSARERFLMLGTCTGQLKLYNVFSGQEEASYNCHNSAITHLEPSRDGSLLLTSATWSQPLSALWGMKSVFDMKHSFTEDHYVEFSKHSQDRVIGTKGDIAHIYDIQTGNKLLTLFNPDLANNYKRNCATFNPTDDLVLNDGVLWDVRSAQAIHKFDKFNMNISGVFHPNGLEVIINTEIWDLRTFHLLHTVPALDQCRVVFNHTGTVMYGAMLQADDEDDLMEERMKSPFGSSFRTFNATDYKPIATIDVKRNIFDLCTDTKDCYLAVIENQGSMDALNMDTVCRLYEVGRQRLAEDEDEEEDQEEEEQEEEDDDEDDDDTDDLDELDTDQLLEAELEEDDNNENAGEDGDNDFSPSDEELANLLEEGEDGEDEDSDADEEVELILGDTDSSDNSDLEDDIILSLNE

Binder | binding result [1] | binding result [2] | stoichiometry N [3]
Vpr (insect cells, co-expressed with VprBP WD40-AR) (natural protein, HIV-1 Vpr ORF, expressed on its own from a p10 promoter in the dual construct; also called 11-kDa Vpr; source: Tni-FNL insect cells, co-expressed with His-MBP-TEV-VprBP, purified (HisTrap, SEC)) MEQAPEDQGPQREPYNEWTLELLEELKSEAVRHFPRIWLHNLGQHIYETYGDTWAGVEAIIRILQQLLFIHFRIGCRHSRIGVTRQRRARNGASRS | binds | – | –
B1 | – | binds | ~2
